To fix the notation:
B1: ydgJ gene: recombinant scyllo-inositol dehydrogenase, ydgJ gene product of Escherichia coli K12 ATCC10798, SEQ ID NO: 2 (protein, listed as Escherichia coli)
chain: MSDNIRVGLIGYGYASKTFHAPLIAGTPGQELAVISSSDETKVKADWPTVTVVSEPKHLFNDPNIDLIVIPTPNDTHFPLAKAALEAGKHVVVDKPFTVTLSQARELDALAKSLGRVLSVFHNRRWDSDFLTLKGLLAEGVLGEVAYFESHFDRFRPQVRDRWREQGGPGSGIWYDLAPHLLDQAITLFGLPVSMTVDLAQLRPGAQSTDYFHAILSYPQRRVILHGTMLAAAESARYIVHGSRGSYVKYGLDPQEERLKNGERLPQEDWGYDMRDGVLTRVEGEERVEETLLTVPGNYPAYYAAIRDALNGDGENPVPASQAIQVMELIELGIESAKHRATLCLA
B2: C58 Atu3234 gene: recombinant scyllo-inositol dehydrogenase, Atu3234 gene product of Agrobacterium tumefaciens C58 ATCC33970, SEQ ID NO: 6 (protein)
chain: MAIEGKTTDVANKRIRLGMVGGGSGAFIGGVHRMAARLDNRFDLVAGALSSTPEKSLASGRELGLDSERCYGSFEEMAEKEALREDGIEAVAIVTPNHVHYPAAKAFLERGIHVICDKPLTSNLEDAKKLKDVADKADALFILTHNYTGYPMVRHARELVEAGALGNIRLVQMEYPQDWLTEAVEQTGAKQAVWRTDPAQSGVGGSTGDIGTHAYNLGCFISGLEADELAADVHTFVEGRRLDDNAHVMMRFKPKGGKQPARGMLWCSQVAVGHENGLKIRLYGDKAGLEWTQADPNYLWFTKLGEPKQLITRGGAGAGAAAARVTRIPSGHPEGYLEAFATIYTEAAHAIEARRTGSALDKAVIYPTVDDGVKGVAFVTACIESGKKNGGWVKL
modifications: Agrobacterium tumefacience
B3: C58 Atu4375 gene: recombinant scyllo-inositol dehydrogenase, Atu4375 gene product of Agrobacterium tumefaciens C58 ATCC33970, SEQ ID NO: 4 (protein)
chain: MSSATKKFDSRRIRLGMVGGGQGAFIGAVHRIAARLDDRYELVAGALSSDPARAAASATLLGIAPERSYASFEDMAATEAGREDGIEAVAIVTPNHLHFAPSKAFLEAGIHVICDKPVTATLEEAKALAGIVRASDSLFVLTHNYTGYAMLRQMREMIAEGAIGKLRHVQAEYAQDWLTEAVEKTGAKGAEWRTDPSRSGAGGAIGDIGTHAFNAAAFVTGEIPSSLYADLTSFVPGRQLDDSANILLRYDSGAKGMLWASQIAVGNENALSLRVYGDKGGLEWHHRVPDELWFTPYGEPKRLITRNGAGAGAAANRVSRVPSGHPEGYLEGFATIYREAADAIIAKREGETAAGEVIYPGMEDGLAGLAFIDAAVRSSQTSTWVGIDI
modifications: Agrobacterium tumefacience

The first data set can be described thus: Optimum pH of scyllo-inositol dehydrogenase. Format: biochemical. The note with it: 200 mM phosphate buffer (pH 5.0 to 9.0); 90% or more of the maximum activity. On the procedure: The optimum pH can be confirmed by: mixing 5 μl of a reaction solution (200 mM […] of pH 5.0 to 9.0 containing 2% of NADPH, and 1% of scyllo-inosose) and 5 μl of an enzyme solution; allowing the mixture to react at 36° C. for 30 minutes; adding 500 μl of water immediately after the completion of the reaction; determining the absorbance at 340 nm; and determining a decrease in the absorbance at 340 nm with respect to a blank value of a test solution containing water instead of the enzyme solution. The term “optimum pH” means a pH at which the enzyme has 90% or more of the maximum activity. The enzyme of the present invention can be divided depending on, for example, a range of the optimum pH into groups each having: an optimum pH in an acidic region (optimum pH is pH of 5.5 to 6.5); an optimum pH in a neutral region (optimum pH is pH of 6.5 to 7.5 or 6.5 to 8.5); and an optimum pH in an alkaline region (optimum pH is pH of 7.0 to 8.5 or 7.5 to 9.0).
The optimum pH of the enzymes of the present invention was determined by: mixing 5 μl of a reaction solution (200 mM phosphate buffer (pH 5.0 to 9.0), 2% of NADPH, and 1% of scyllo-inosose) with 5 μl of an enzyme solution; and allowing the mixture to react at 36° C. for 30 min. After the reaction, 500 μl of water was immediately added thereto, and the absorbance at 340 nm was measured. From the blank value of a test solution prepared by using water instead of the enzyme solution, the decrease in the absorbance at 340 nm was measured. The enzyme solution was diluted as required.
With B1, the “Optimum pH” value is reported as “pH 7.5-9.0”.
The same measure, in the same setting: to B2 belongs “pH 7.0-8.5”.
The same measure, in the same setting: then B3, with “pH 6.5-8.5”.

The nature of a further data set: Effects of heavy metal on scyllo-inositol dehydrogenase. It is filed as biochemical. The note with it: 2 mM heavy metal in reaction solution; no addition group = 100%. The protocol:
Effects by the heavy metals can be confirmed by: mixing 5 μl of a reaction solution (200 mM Tris buffer of pH 8.0 containing 2% of NADPH, 1% of scyllo-inosose, and 2 mM metal salt) and 5 μl of an enzyme solution; allowing the mixture to react at 36° C. for 30 minutes; adding 500 μl of water immediately after the completion of the reaction; determining the absorbance at 340 nm; and determining a decrease in the absorbance at 340 nm with respect to a blank value of a test solution containing water instead of the enzyme solution. The term “activated” means the case where the enzymatic activity of a fraction added with 1 mM of a heavy metal is 105% or more, preferably 120% or more, with respect to the enzymatic activity of a fraction added with no heavy metal as 100%. On the other hand, the term “inhibited” means the case where the enzymatic activity of the fraction added with 1 mM of a heavy metal is 95% or less, preferably 70% or less, with respect to the enzymatic activity of the fraction added with no heavy metal as 100%.
The effects of heavy metal on the enzymes of the present invention were determined by: mixing 5 μl of a reaction solution (200 mM Tris buffer (pH 8.0), 2% of NADPH, 1% of scyllo-inosose, and 2 mM of a heavy metal) with 5 μl of an enzyme solution; and allowing the mixture to react at 36° C. for 30 min. After the reaction, 500 μl of water was immediately added thereto, and the absorbance at 340 nm was measured. From the blank value of a test solution prepared by using water instead of the enzyme solution, the decrease in the absorbance at 340 nm was measured. The enzyme solution was diluted as required. CaCl2, CoCl2, ZnSO4, MgSO4, SnCl2, NiCl2, and MnSO4 were used as metallic salts. The activity of the no addition group was defined as 100%, and the relative activities were compared. […] Most of the enzymes were inhibited in the presence of Zn^2+ ion, in contrast, the enzyme derived from Bacillus subtilis 168 was activated in the presence of Zn^2+ ion.
As to B1, the “Heavy metal effects: activation” value is listed as “Co” and the “Heavy metal effects: strong inhibition” value is listed as “Sn, Zn”.
Turning to B2, the “Heavy metal effects: activation” value is listed as “Co, Mn, Ca” and the “Heavy metal effects: strong inhibition” value is listed as “Sn, Zn”.
For B3, the “Heavy metal effects: activation” value is recorded as “Co, Mn” and the “Heavy metal effects: strong inhibition” value is listed as “Sn, Zn”.

The nature of the next data set: Km values of scyllo-inositol dehydrogenase for scyllo-inosose (reciprocal plot). Format: biochemical. The note with it: NADPH, pH 8.0, 36° C. On the procedure:
The determination is carried out such that the Km value is calculated after reciprocal plot according to the general method.
After the reaction, […] of water was immediately added thereto, and the absorbance at 340 nm was measured. From the blank value of a test solution prepared by using water instead of the enzyme solution, the decrease in the absorbance at 340 nm was measured. The enzyme solution was diluted as required. The Km values were calculated by the reciprocal plot.
By Km is commonly meant the concentration of substrate that gives half-maximal velocity. Regarding B1, the Km turned out to be 3.9 mM.
As for B2, the Km was 2.6 mM.
As to B3, the Michaelis constant (Km) came to 9.2 mM.

A further data set is described as follows: Enzyme reaction product of scyllo-inosose reduction measured by HPLC. Format: biochemical. The note with it: 10 mg scyllo-inosose, 40 mg NADPH, 10 U enzyme, 36° C., 4 hours; myo-inositol not detected. The protocol: Meanwhile, the enzyme reaction product was measured as follows: 10 mg of scyllo-inosose, 40 mg of NADPH, and 10 U of the enzyme were allowed to react in 1.0 ml of 100 mM Tris buffer (pH 8.0) at 36° C. for 4 hours, and a heat treatment was performed at 80° C. for 10 min, followed by cooling. Then, 100 μl of a strong base cation exchange resin, 100 μl of a strong acid anion exchange resin, and 10 mg of activated carbon were added, and the mixture was stirred and centrifuged. Then, the supernatant was diluted 2-fold, and measurement was performed by HPLC (Shodex Asahipak NH2P-50 4E Φ 4.6×250 mm: Shodex) using an RI detector under the condition of a column temperature of 40° C. and a mobile phase flow rate of 1.5 ml (80% acetonitrile). […] Meanwhile, the sequence of the ydgJ gene is shown in SEQ ID NO: 1, and the amino acid sequence corresponding thereto is shown in SEQ ID NO: 2.
Meanwhile, enzyme reaction product was measured as follows: 10 mg of scyllo-inosose, 40 mg of NADPH, and 10 U of the enzyme were allowed to react in 1.0 ml of 100 mM Tris buffer (pH 8.0) at 36° C. for 4 hours, and a heat treatment was performed at 80° C. for 10 min, followed by cooling. Then, 100 μl of a strong base cation exchange resin, 100 μl of a strong acid anion exchange resin, and 10 mg of activated carbon were added, and the mixture was stirred and centrifuged. Then, the supernatant was diluted 2-fold, and measurement was performed by HPLC (Shodex Asahipak NH2P-50 4E Φ 4.6×250 mm: Shodex) using an RI detector under conditions of a column temperature of 40° C. and a mobile phase flow rate of 1.5 ml (80% acetonitrile).
As to B1, the “share of scyllo-inositol in the product of scyllo-inosose reduction” value is on record as 100%.
On the same count and under the same terms, to B2 belongs 100%; to B3, 100%.

The data set is the same for the next values; noted with them: SIS: scyllo-inosose, SI: scyllo-inositol.
Turning to B1, the Reduction reaction product entry is listed as “Only SIS → SI”.
B2: the Reduction reaction product entry was “Only SIS → SI”.
Same read-out and setting: to B3 belongs “Only SIS → SI”.

The nature of a further data set: Substrate specificity of scyllo-inositol dehydrogenase (relative activity of oxidation, absorbance at 545 nm). Format: biochemical. Conditions: relative to reactivity to scyllo-inositol, NADP^+, pH 8.0, 25° C. The protocol: Examples of an inositol isomer include scyllo-inositol (SI), myo-inositol (MI), D-chiro-inositol (DCI), L-chiro-inositol (LCI), epi-inositol (EI), muco-inositol (MuI), allo-inositol (AI), and neo-inositol (NI).
The inositol isomers include scyllo-inositol (SI), myo-inositol (MI), D-chiro-inositol (DCI), L-chiro-inositol (LCI), epi-inositol (EI), muco-inositol (MuI), allo-inositol (AI), and neo-inositol (NI).
The reaction rate was calculated from the absorbance increments at the respective times.
For the molecule B1, the “Substrate specific Relative activity (20 to 70%)” value is on record as “LCI, EI, MuI”; the “Substrate specific Relative activity (70% or more)” value is “SI, MI, DCI”; the “Substrate specific Relative activity (less than 20%)” value was “AI, NI”.
Take B2: the “Substrate specific Relative activity (20 to 70%)” value is listed as “MuI”; the “Substrate specific Relative activity (70% or more)” value is “SI, MI, DCI, EI, LCI”; the “Substrate specific Relative activity (less than 20%)” value is given as “AI, NI”.
With B3, the “Substrate specific Relative activity (20 to 70%)” value is “LCI, MuI”; the “Substrate specific Relative activity (70% or more)” value is on record as “SI, MI, DCI, EI”; the “Substrate specific Relative activity (less than 20%)” value is listed as “AI, NI”.

For the origin of these results see patent publication US8409833B2 (Hokko Chemical Industry Co., Ltd., priority 2003, dated 2013).
